Biological target: T1, wild-type HexaPro (D614) SARS-CoV-2 spike trimer (SARS-CoV-2, wild type (D614), stabilised)
T1 construct: also called wild-type trimer
Assay: BLI; Octet Red384; […]; analyte ([…]; HBS-EP+ buffer; 1:1 binding model
Conditions: one partner purified

B1: tixagevimab (AZD8895), full-length IgG (antibody, V domains shown)
VH: QMQLVQSGPEVKKPGTSVKVSCKASGFTFMSSAVQWVRQARGQRLEWIGWIVIGSGNTNYAQKFQERVTITRDMSTSTAYMELSSLRSEDTAVYYCAAPYCSSISCNDGFDIWGQGTMVTVSS
VL: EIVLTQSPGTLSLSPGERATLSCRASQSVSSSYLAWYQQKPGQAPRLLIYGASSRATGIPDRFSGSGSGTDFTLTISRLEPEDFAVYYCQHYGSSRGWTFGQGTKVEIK
notes: also called component of AZD7442 (Evusheld); copies: 2 + 2
  Kd: 0.491 nM
